Measurements: the Human Domainome abundance scans (Beltran et al. 2025)
± gives the uncertainty stated by the source.

B1: Cytoplasmic polyadenylation element-binding protein 2, residues 513 to 575; numbered along this chain, Q7Z5Q1 (parent)
chain: KRVEVKPYVLDDQMCDECQGARCGGKFAPFFCANVTCLQYYCEFCWANIHSRAGREFHKPLVK

Variants of: B1
Assay: abundance fitness (aPCA) (normalised: wild type 0, dead -1); higher = more abundant; growth selection in yeast, the domain comes from the species named
Details: Homo sapiens
For KRVCVKPYVLDDQMCDECQGARCGGKFAPFFCANVTCLQYYCEFCWANIHSRAGREFHKPLVK, the abundance fitness was -0.353 ± 0.073.
In the case of KRVEVKPYVLDDQMCDECQGARCGGKFAPFFCANVTCLQYYCEFCWANIHSRAGREDHKPLVK, the abundance fitness is reported as 0.054 ± 0.073.
For KRVEVKPYVLDDQMCDECQGARCGGKFAPFFCANVTCLQYYCEFCWANIHSRAGREVHKPLVK, the abundance fitness was 0.065 ± 0.048.
With KRVEVKPYVLDDQMCDECQGARCGGKFAPFFCANVTCLQYYCEFCWANIHSRAGRERHKPLVK the abundance fitness was 0.097 ± 0.038.
In the case of KRVEVKPYVLDDQMCDECQGARCGGKFAPFFCANVTCLQYYCEFCWYNIHSRAGREFHKPLVK, the abundance fitness is reported as -0.114 ± 0.088.
KRVEVKPYVLDDQMCDECQGARCGGKFAPFFCANVTCLQYYCEFCWRNIHSRAGREFHKPLVK gave an abundance fitness of -0.041 ± 0.042.
KRVEVKPYVLDDQMCDECQGARCGGKFAPFFCANVTCLQYYCEFCWHNIHSRAGREFHKPLVK gave an abundance fitness of -0.17 ± 0.061.
With KRVEVKPYVLDDQMCDECQGARCGGKFAPFFCANVTCLQYYCEFCWANIHSRAGHEFHKPLVK the abundance fitness was -0.131 ± 0.087.
KRVEVKPYVLDDQMCDECQGARCGGKFAPFFCANVTCLQYYCEFCWANIHSRAGAEFHKPLVK gave an abundance fitness of -0.03 ± 0.052.
For KRVEVKPYVRDDQMCDECQGARCGGKFAPFFCANVTCLQYYCEFCWANIHSRAGREFHKPLVK, the abundance fitness was 0.046 ± 0.04.
KRVEVKPYVLDDQMCDECQGARCGGKFAPFFCANVTCLQYYCEFCWANIFSRAGREFHKPLVK gave an abundance fitness of -0.904 ± 0.11.
For KRVEVKPYVLDDQMCDEAQGARCGGKFAPFFCANVTCLQYYCEFCWANIHSRAGREFHKPLVK, the abundance fitness was -0.674 ± 0.081.
Work on KRVEVKPYVLDDQMCDERQGARCGGKFAPFFCANVTCLQYYCEFCWANIHSRAGREFHKPLVK yielded an abundance fitness of -0.641 ± 0.05.
Work on KRVEVFPYVLDDQMCDECQGARCGGKFAPFFCANVTCLQYYCEFCWANIHSRAGREFHKPLVK yielded an abundance fitness of -0.337 ± 0.066.
For KRVEVKPYVLDDQMCDECQGARCGGKFAPFFCANVTCYQYYCEFCWANIHSRAGREFHKPLVK, the abundance fitness was 0.174 ± 0.077.
KRVEVKPYVLDDQMCDECQGARCGGKFAPFFCANVTCGQYYCEFCWANIHSRAGREFHKPLVK showed an abundance fitness of -0.006 ± 0.039.
For KRVEVKPYVLDDQMCDECQGARCGGKFAPFFCANVTCKQYYCEFCWANIHSRAGREFHKPLVK, the abundance fitness was 0.202 ± 0.062.
With KRVEVKPYVLDDQMCDECQGARCGGKFAPAFCANVTCLQYYCEFCWANIHSRAGREFHKPLVK the abundance fitness was -0.261 ± 0.066.
Work on KRVEVKPYVLDDQMCDECQGARCGGKFAPRFCANVTCLQYYCEFCWANIHSRAGREFHKPLVK yielded an abundance fitness of -0.09 ± 0.04.
For KRVEVKPYVLDDQMCDECQGARCGGKFAPVFCANVTCLQYYCEFCWANIHSRAGREFHKPLVK, the abundance fitness was -0.219 ± 0.049.
Work on KRVEVKPYVLDDQMCDECQGARCGGKFAPFFCANVTCLQYYCEFCWANIHSRAGREFHKPQVK yielded an abundance fitness of 0.116 ± 0.057.
KRVEVKPYVLDDQMCDECQGARCGGKFAPFFCANVTCLQYYCEFCWANIHSRAGREFHKPTVK showed an abundance fitness of 0.076 ± 0.052.
KRVEVKPYVLDDQMCDECQGARCGGKFAPFFCANVDCLQYYCEFCWANIHSRAGREFHKPLVK showed an abundance fitness of 0.108 ± 0.077.
Variant KRVEVKPYVLDDQMCDECQGARCGGKFAPFFCANVQCLQYYCEFCWANIHSRAGREFHKPLVK has an abundance fitness of -0.058 ± 0.052.
Work on KRVEVKPYVLDDQMCDECQGARCGGKFAPFFCANVTCLQYYEEFCWANIHSRAGREFHKPLVK yielded an abundance fitness of -0.951 ± 0.4.
With KRVEVKPYVLDDQMCDECQGARCGGKFAPFFCANVTCLQYYAEFCWANIHSRAGREFHKPLVK the abundance fitness was -0.593 ± 0.11.
KRVEVKPYVLDDGMCDECQGARCGGKFAPFFCANVTCLQYYCEFCWANIHSRAGREFHKPLVK gave an abundance fitness of -0.378 ± 0.05.
KRVEVKPYVLDDKMCDECQGARCGGKFAPFFCANVTCLQYYCEFCWANIHSRAGREFHKPLVK gave an abundance fitness of 0.161 ± 0.058.
KRVEVKPYVLDDQMCDECQGARCGGKFAPFFCYNVTCLQYYCEFCWANIHSRAGREFHKPLVK showed an abundance fitness of 0.009 ± 0.089.
For KRVEVKPYVLDDQMCDECQGARCGGKFAPFFCLNVTCLQYYCEFCWANIHSRAGREFHKPLVK, the abundance fitness was -0.311 ± 0.042.
Work on KRVEVKPYVLDDQMCDECQGARCGGKFAPFFCANVTCLQYYCEFCWANIHSRAGREFHAPLVK yielded an abundance fitness of -0.118 ± 0.053.
Variant KRVEVKPYVLDDQMCDECQGARCGGKFAPFFCANVTCLQYYCEFCWANIHSRAGREFHWPLVK has an abundance fitness of -0.46 ± 0.047.
With KRVEVKPYVLDDQMCDECQGARCGGKFAPFFCANVTCLQYYCEFSWANIHSRAGREFHKPLVK the abundance fitness was -1.1 ± 0.094.
In the case of KRVEVKPYVLDDQMCDECQGARCGGKFAPFFCANVTCLQYYCEFIWANIHSRAGREFHKPLVK, the abundance fitness is reported as -1.1 ± 0.25.
In the case of KRVEVKPYVLDDQMCDECQGARCGGKFAPFFCANVTCLQYYCEFKWANIHSRAGREFHKPLVK, the abundance fitness is reported as -1.11 ± 0.15.
Work on KRVEVKPYVLDDQMCDECQGARCGCKFAPFFCANVTCLQYYCEFCWANIHSRAGREFHKPLVK yielded an abundance fitness of -0.349 ± 0.086.
Work on KRVEVKPYVLDDQMCDRCQGARCGGKFAPFFCANVTCLQYYCEFCWANIHSRAGREFHKPLVK yielded an abundance fitness of -0.059 ± 0.035.
KRVEVKPYVLDDQMCDWCQGARCGGKFAPFFCANVTCLQYYCEFCWANIHSRAGREFHKPLVK gave an abundance fitness of -0.25 ± 0.051.
Variant KRVEVKPYVLDDQMCDECQGARCGGKFAPFFCANVTCLQYYCEFCWANIHRRAGREFHKPLVK has an abundance fitness of 0.116 ± 0.035.
With KRVEVKPYVLDDQMCDECQGARCGGKFAPFFCANVTCLQYYCEFCWANIHSRAGREFLKPLVK the abundance fitness was -0.707 ± 0.061.
With KRVEVKPYVLDDQMCDECQGARCGGKFAPFFCANVTCLQYYCEFCWANIHSRAGREFCKPLVK the abundance fitness was -0.227 ± 0.062.
For KRVEVKPYVLDYQMCDECQGARCGGKFAPFFCANVTCLQYYCEFCWANIHSRAGREFHKPLVK, the abundance fitness was -0.273 ± 0.056.
With KRVEVKPYVLDDQMCDECQGARCGGKFAPFFCANVTCLQYYCEYCWANIHSRAGREFHKPLVK the abundance fitness was 0.059 ± 0.096.
